Data: the RNAGym collection of RNA variant scans (doi:10.1093/molbev/msab373)

B1: Azoarcus group I ribozyme (parent)
chain: GUGCCUUGCGCCGGGAAACCACGCAAGGGAUGGUGUCAAAUUCGGCGAAACCUAAGCGCCCGCCCGGGCGUAUGGCAACGCCGAGCCAAGCUUCGGCGCCUGCGCCGAUGAAGGUGUAGAGACUAGACGGCACCCACCUAAGGCAAACGCUAUGGUGAAGGCAUAGUCCAGGGAGUGGCGAAAGUCACACAAACCGG

Variants of: B1
Assay: reverse-splicing fitness (ratio to wild type); higher = more active; in vitro selection; Mg2+ level not given
In short: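 An in vitro group I ribozyme library with randomized positions was T7-transcribed and gel-purified. In triplicate, 10 pmol RNA in EPPS pH 7.5 was reacted with 50 pmoles of a 30-nt RNA substrate for 1 h at 37 °C across several added MgCl2 levels (1–48 mM), then stopped with EDTA. Products were reverse transcribed from a substrate-complementary primer, PCR-amplified and sequenced (HiSeq 4000). Fitness is a variant's read proportion after selection over that before, normalised to wild type.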
In the case of C82U A111C A145C C150A C169A U176A, the reverse-splicing fitness is reported as 0.0134. C82U A111C A145C C150A C169A U176C showed a reverse-splicing fitness of 0.00874. In the case of C82U A111C A145C C150A C169A U176G, the reverse-splicing fitness is reported as 0.00794. C82U A111C A145C C150A C169G gave a reverse-splicing fitness of 0.00773. C82U A111C A145C C150A C169G U176A gave a reverse-splicing fitness of 0.024. Work on C82U A111C A145C C150A C169G U176C yielded a reverse-splicing fitness of 0.0205. C82U A111C A145C C150A C169G U176G showed a reverse-splicing fitness of 0.00743. In the case of C82U A111C A145C C150A C169U, the reverse-splicing fitness is reported as 0.00887. Work on C82U A111C A145C C150A C169U U176A yielded a reverse-splicing fitness of 0.0154. With C82U A111C A145C C150A C169U U176C the reverse-splicing fitness was 0.0106. Variant C82U A111C A145C C150A C169U U176G has a reverse-splicing fitness of 0.00709. Variant C82U A111C A145C C150A U176A has a reverse-splicing fitness of 0.0114. Work on C82U A111C A145C C150A U176C yielded a reverse-splicing fitness of 0.0145. Variant C82U A111C A145C C150A U176G has a reverse-splicing fitness of 0.00685. Work on C82U A111C A145C C150G yielded a reverse-splicing fitness of 0.024. For C82U A111C A145C C150G C169A, the reverse-splicing fitness was 0.00742. Work on C82U A111C A145C C150G C169A U176A yielded a reverse-splicing fitness of 0.00873. In the case of C82U A111C A145C C150G C169A U176C, the reverse-splicing fitness is reported as 0.0077. For C82U A111C A145C C150G C169A U176G, the reverse-splicing fitness was 0.00657. In the case of C82U A111C A145C C150G C169G, the reverse-splicing fitness is reported as 0.00696. With C82U A111C A145C C150G C169G U176A the reverse-splicing fitness was 0.00798. For C82U A111C A145C C150G C169G U176C, the reverse-splicing fitness was 0.00811. C82U A111C A145C C150G C169G U176G showed a reverse-splicing fitness of 0.0058. Work on C82U A111C A145C C150G C169U yielded a reverse-splicing fitness of 0.00936. In the case of C82U A111C A145C C150G C169U U176A, the reverse-splicing fitness is reported as 0.00919. With C82U A111C A145C C150G C169U U176C the reverse-splicing fitness was 0.0106. With C82U A111C A145C C150G C169U U176G the reverse-splicing fitness was 0.00606. Work on C82U A111C A145C C150G U176A yielded a reverse-splicing fitness of 0.00961. Variant C82U A111C A145C C150G U176C has a reverse-splicing fitness of 0.0151. C82U A111C A145C C150G U176G showed a reverse-splicing fitness of 0.00264. For C82U A111C A145C C150U, the reverse-splicing fitness was 0.0562. With C82U A111C A145C C150U C169A the reverse-splicing fitness was 0.00854. For C82U A111C A145C C150U C169A U176A, the reverse-splicing fitness was 0.011. C82U A111C A145C C150U C169A U176C gave a reverse-splicing fitness of 0.01. C82U A111C A145C C150U C169A U176G gave a reverse-splicing fitness of 0.00687. In the case of C82U A111C A145C C150U C169G, the reverse-splicing fitness is reported as 0.00727. C82U A111C A145C C150U C169G U176A showed a reverse-splicing fitness of 0.0257. With C82U A111C A145C C150U C169G U176C the reverse-splicing fitness was 0.0168. With C82U A111C A145C C150U C169G U176G the reverse-splicing fitness was 0.0077. With C82U A111C A145C C150U C169U the reverse-splicing fitness was 0.00891. In the case of C82U A111C A145C C150U C169U U176A, the reverse-splicing fitness is reported as 0.0154. C82U A111C A145C C150U C169U U176C gave a reverse-splicing fitness of 0.00946. C82U A111C A145C C150U C169U U176G showed a reverse-splicing fitness of 0.00631. In the case of C82U A111C A145C C150U U176A, the reverse-splicing fitness is reported as 0.0229. C82U A111C A145C C150U U176C gave a reverse-splicing fitness of 0.0358. In the case of C82U A111C A145C C150U U176G, the reverse-splicing fitness is reported as 0.00938. Work on C82U A111C A145C C169A yielded a reverse-splicing fitness of 0.00714. With C82U A111C A145C C169A U176A the reverse-splicing fitness was 0.0127. C82U A111C A145C C169A U176C gave a reverse-splicing fitness of 0.00939. Variant C82U A111C A145C C169A U176G has a reverse-splicing fitness of 0.00613. For C82U A111C A145C C169G, the reverse-splicing fitness was 0.00983. Variant C82U A111C A145C C169G U176A has a reverse-splicing fitness of 0.0274. With C82U A111C A145C C169G U176C the reverse-splicing fitness was 0.0207. C82U A111C A145C C169G U176G gave a reverse-splicing fitness of 0.00669. With C82U A111C A145C C169U the reverse-splicing fitness was 0.0113. Work on C82U A111C A145C C169U U176A yielded a reverse-splicing fitness of 0.0157. Work on C82U A111C A145C C169U U176C yielded a reverse-splicing fitness of 0.0113. C82U A111C A145C C169U U176G showed a reverse-splicing fitness of 0.00632. C82U A111C A145C U176A gave a reverse-splicing fitness of 0.0676. In the case of C82U A111C A145C U176C, the reverse-splicing fitness is reported as 0.0915. C82U A111C A145C U176G gave a reverse-splicing fitness of 0.0186. C82U A111C A145G showed a reverse-splicing fitness of 0.266. Variant C82U A111C A145G C150A has a reverse-splicing fitness of 0.0325. C82U A111C A145G C150A C169A showed a reverse-splicing fitness of 0.0093. For C82U A111C A145G C150A C169A U176A, the reverse-splicing fitness was 0.0149. In the case of C82U A111C A145G C150A C169A U176C, the reverse-splicing fitness is reported as 0.0197. With C82U A111C A145G C150A C169A U176G the reverse-splicing fitness was 0.00838. In the case of C82U A111C A145G C150A C169G, the reverse-splicing fitness is reported as 0.00813. C82U A111C A145G C150A C169G U176A gave a reverse-splicing fitness of 0.014. With C82U A111C A145G C150A C169G U176C the reverse-splicing fitness was 0.0256. Variant C82U A111C A145G C150A C169G U176G has a reverse-splicing fitness of 0.00685. C82U A111C A145G C150A C169U gave a reverse-splicing fitness of 0.0103. Work on C82U A111C A145G C150A C169U U176A yielded a reverse-splicing fitness of 0.0144. For C82U A111C A145G C150A C169U U176C, the reverse-splicing fitness was 0.0157. With C82U A111C A145G C150A C169U U176G the reverse-splicing fitness was 0.00739. With C82U A111C A145G C150A U176A the reverse-splicing fitness was 0.0169. Work on C82U A111C A145G C150A U176C yielded a reverse-splicing fitness of 0.0313. Work on C82U A111C A145G C150A U176G yielded a reverse-splicing fitness of 0.00984. In the case of C82U A111C A145G C150G, the reverse-splicing fitness is reported as 0.0275. With C82U A111C A145G C150G C169A the reverse-splicing fitness was 0.0079. With C82U A111C A145G C150G C169A U176A the reverse-splicing fitness was 0.0123. Work on C82U A111C A145G C150G C169A U176C yielded a reverse-splicing fitness of 0.0111. In the case of C82U A111C A145G C150G C169A U176G, the reverse-splicing fitness is reported as 0.0072.
